Laboratory results taken from PMC12362244, “Fidelity, specialization, and evolution of Paramecium PolX DNA polymerases involved in programmed double-strand break DNA repair” (Nucleic Acids Research, 2025).

What was measured:
Test in all cases: steady-state single-nucleotide gap-filling, FAM-primer urea-PAGE, Michaelis-Menten fit
Conditions in all cases: 1 µM gap-filling DNA (continuous template), 5 nM enzyme, 5 mM MgCl2, pH 7.5, 27°C
[1] = substrate: Nc1nc2c(ncn2[C@H]2C[C@H](O)[C@@H](COP(=O)(O)OP(=O)(O)OP(=O)(O)O)O2)c(=O)[nH]1; type: biochemical, Homo sapiens
Excerpt: steady-state single-nucleotide gap-filling, FAM-primer urea-PAGE, Michaelis-Menten fit on Polλxt | all mutants underwent steady-state characterization in gap-filling context (Fig. 4B and C)

[2] = substrate: Nc1nc2c(ncn2[C@H]2C[C@H](O)[C@@H](COP(=O)(O)OP(=O)(O)OP(=O)(O)O)O2)c(=O)[nH]1; type: biochemical, Homo sapiens; remark: listed apart in the source
Excerpt: steady-state single-nucleotide gap-filling, FAM-primer urea-PAGE, Michaelis-Menten fit on Polλxt | despite an almost normal KM in the […] range

[3] = substrate: Nc1nc2c(ncn2[C@H]2C[C@H](O)[C@@H](COP(=O)(O)OP(=O)(O)OP(=O)(O)O)O2)c(=O)[nH]1; type: biochemical, Paramecium
[4] = substrate: Nc1nc2c(ncn2[C@H]2C[C@H](O)[C@@H](COP(=O)(O)OP(=O)(O)OP(=O)(O)O)O2)c(=O)[nH]1; type: biochemical, Homo sapiens; remark: listed apart in the source

B1: Polλxt (Homo sapiens; C543A/DEL464-472/INS464KGET) (protein)
chain: AQPSSQKATNHNLHITEKLEVLAKAYSVQGDKWRALGYAKAINALKSFHKPVTSYQEACSIPGIGKRMAEKIIEILESGHLRKLDHISESVPVLELFSNIWGAGTKTAQMWYQQGFRSLEDIRSQASLTTQQAIGLKHYSDFLERMPREEATEIEQTVQKAAQAFNSGLLCVACGSYRRGKATCGDVDVLITHPDGRSHRGIFSRLLDSLRQEGFLTDDLVSKGETYLGVCRLPGPGRRHRRLDIIVVPYSEFACALLYFTGSAHFNRSMRALAKTKGMSLSEHALSTAVVRNTHGAKVGPGRVLPTPTEKDVFRLLGLPYREPAERDW
notes: Δ1-241; Loop1 residues 464-472 replaced by KGET of Polβ; cleavable N-terminal 14-His tag; E. coli
- Km [1]: 1893 (949.4 - 4602.0) nM

B2: Polλxt (Homo sapiens; C543A/DEL464-472/H530Y/I492R/INS464KGET/S528N) (protein)
chain: AQPSSQKATNHNLHITEKLEVLAKAYSVQGDKWRALGYAKAINALKSFHKPVTSYQEACSIPGIGKRMAEKIIEILESGHLRKLDHISESVPVLELFSNIWGAGTKTAQMWYQQGFRSLEDIRSQASLTTQQAIGLKHYSDFLERMPREEATEIEQTVQKAAQAFNSGLLCVACGSYRRGKATCGDVDVLITHPDGRSHRGIFSRLLDSLRQEGFLTDDLVSKGETYLGVCRLPGPGRRHRRLDIRVVPYSEFACALLYFTGSAHFNRSMRALAKTKGMSLNEYALSTAVVRNTHGAKVGPGRVLPTPTEKDVFRLLGLPYREPAERDW
notes: as for B1
- Km [2]: 849.9 (587.8 - 1277.0) nM

B3: Polλxt (Homo sapiens; C543A/DEL464-472/E529D/I492K/INS464KGET) (protein)
chain: AQPSSQKATNHNLHITEKLEVLAKAYSVQGDKWRALGYAKAINALKSFHKPVTSYQEACSIPGIGKRMAEKIIEILESGHLRKLDHISESVPVLELFSNIWGAGTKTAQMWYQQGFRSLEDIRSQASLTTQQAIGLKHYSDFLERMPREEATEIEQTVQKAAQAFNSGLLCVACGSYRRGKATCGDVDVLITHPDGRSHRGIFSRLLDSLRQEGFLTDDLVSKGETYLGVCRLPGPGRRHRRLDIKVVPYSEFACALLYFTGSAHFNRSMRALAKTKGMSLSDHALSTAVVRNTHGAKVGPGRVLPTPTEKDVFRLLGLPYREPAERDW
notes: as for B1
- Km [3]: 399.3 (247.1 - 607.0) nM

B4: Polλxt (Homo sapiens; C543A/DEL464-472/I492K/INS464KGET) (protein)
chain: AQPSSQKATNHNLHITEKLEVLAKAYSVQGDKWRALGYAKAINALKSFHKPVTSYQEACSIPGIGKRMAEKIIEILESGHLRKLDHISESVPVLELFSNIWGAGTKTAQMWYQQGFRSLEDIRSQASLTTQQAIGLKHYSDFLERMPREEATEIEQTVQKAAQAFNSGLLCVACGSYRRGKATCGDVDVLITHPDGRSHRGIFSRLLDSLRQEGFLTDDLVSKGETYLGVCRLPGPGRRHRRLDIKVVPYSEFACALLYFTGSAHFNRSMRALAKTKGMSLSEHALSTAVVRNTHGAKVGPGRVLPTPTEKDVFRLLGLPYREPAERDW
notes: as for B1
- Km [4]: 494.7 (237.7 - 937.3) nM
